Assay results reported in patent publication US20200109196A1 (MOGAM INSTITUTE FOR BIOMEDICAL RESEARCH, published 2020).

Columns and labels:
Experiment in all cases: flow cytometry on transfected HEK293 cells (GFP+ gate), PE goat anti-huIgG4 [b]
[1] = target: T1, CEACAM3 expressed on the surface of HEK293 cells (human, UniProt P40198 35-252)
T1 construct: whole, on cells; GFP-tagged clone; also called CEACAM3-GFP
T1 sequence (looked up): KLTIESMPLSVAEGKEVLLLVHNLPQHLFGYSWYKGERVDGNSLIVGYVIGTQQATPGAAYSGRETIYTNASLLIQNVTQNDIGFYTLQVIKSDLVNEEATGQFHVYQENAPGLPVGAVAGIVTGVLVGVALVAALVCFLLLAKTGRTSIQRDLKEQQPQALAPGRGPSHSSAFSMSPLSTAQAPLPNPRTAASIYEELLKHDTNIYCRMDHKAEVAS
Protocol: (§1) HEK293 cells were added with 10 μg of each pEF1α-AcGFP-N1 vector (Clontech, Cat. No. 631973) as a control vector, CEACAM1, CEACAM3, CEACAM5, CEACAM6 and CEACAM8 plasmid vectors, followed by transfection under the condition of pulse voltage 1,100 V, pulse width 20 ms and pulse number 2. After 48 hours of transfection, GFP expression was confirmed by fluorescence microscopy. The cells were detached by treatment with 1 ml of TrypLE Express Solution (ThermoFisher Scientific; Cat. No. 12605010), resuspended in 9 ml of DMEM (Gibco, Cat. No. 11995-065) supplemented with 10% (v/v) FBS, and centrifuged at 1,200 rpm for 5 minutes, to remove the resulting supernatant.
(§2) After washing once with PBS, the cells were resuspended in a FACS buffer to obtain a concentration of 5×10⁵ cells/100 μl. Human Fc Block solution was added to the samples at 1 μl/sample, which were incubated at 4° C. for 10 minutes. The cells were treated with hulgG4 or one of the anti-CEACAM1 clones listed at 1 μg/5×10⁵ cells, which were incubated at 4° C. for 10 minutes. After washing with FACS buffer, the PE-labeled goat-anti-huIgG4 antibodies were diluted at a ratio of 1:200 in a FACS buffer, and added to the samples at 100 μl/sample, which were incubated at 4° C. for 30 minutes. The samples were filled with a FACS buffer up to 200 μl, and then centrifuged at 1,200 rpm for 5 minutes, to remove the resulting supernatant. The fixation buffer (300 μl) was added to resuspend the cells. The cells expressing GFP were selected in the FACS LSR-Fortessa device, and the expression of CEACAM members were evaluated respectively using the antibody specific to each CEACAM member (Table 3). Also, the binding of anti-CEACAM1 antibodies was evaluated by PE fluorescence channel and analyzed using the FlowJo software.

[2] = target: T2, CEACAM5 expressed on the surface of HEK293 cells (human, UniProt P06731 35-685)
T2 construct: whole, on cells; GFP-tagged clone; also called CEACAM5-GFP
T2 sequence (looked up): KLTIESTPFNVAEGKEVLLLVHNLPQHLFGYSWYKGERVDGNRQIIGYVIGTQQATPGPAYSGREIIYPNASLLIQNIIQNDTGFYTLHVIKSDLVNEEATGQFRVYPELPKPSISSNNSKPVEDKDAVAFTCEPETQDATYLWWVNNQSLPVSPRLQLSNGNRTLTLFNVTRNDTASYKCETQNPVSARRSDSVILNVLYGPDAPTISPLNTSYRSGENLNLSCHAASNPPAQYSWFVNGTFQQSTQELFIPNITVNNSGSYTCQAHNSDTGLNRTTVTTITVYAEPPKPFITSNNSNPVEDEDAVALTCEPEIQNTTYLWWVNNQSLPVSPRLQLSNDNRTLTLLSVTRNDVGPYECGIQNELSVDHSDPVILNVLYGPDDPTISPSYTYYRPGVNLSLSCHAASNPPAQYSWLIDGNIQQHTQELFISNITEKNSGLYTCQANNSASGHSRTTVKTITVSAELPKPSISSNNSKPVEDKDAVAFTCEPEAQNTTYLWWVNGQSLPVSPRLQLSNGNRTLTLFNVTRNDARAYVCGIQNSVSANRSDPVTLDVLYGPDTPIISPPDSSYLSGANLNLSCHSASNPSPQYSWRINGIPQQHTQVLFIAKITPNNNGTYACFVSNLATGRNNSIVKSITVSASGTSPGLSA
Protocol: as §1, §2

[3] = target: T3, CEACAM6 expressed on the surface of HEK293 cells (human, UniProt P40199 35-320)
T3 construct: whole, on cells; GFP-tagged clone; also called CEACAM6-GFP
T3 sequence (looked up): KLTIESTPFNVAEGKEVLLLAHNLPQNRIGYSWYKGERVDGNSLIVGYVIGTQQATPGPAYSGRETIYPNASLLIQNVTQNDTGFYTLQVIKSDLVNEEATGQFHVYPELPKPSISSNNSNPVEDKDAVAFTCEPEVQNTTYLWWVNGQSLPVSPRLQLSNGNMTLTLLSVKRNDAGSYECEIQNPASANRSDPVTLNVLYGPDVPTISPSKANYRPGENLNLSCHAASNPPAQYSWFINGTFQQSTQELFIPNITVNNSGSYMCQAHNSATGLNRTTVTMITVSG
Protocol: as §1, §2

[4] = target: T4, CEACAM8 expressed on the surface of HEK293 cells (human, UniProt P31997 35-320)
T4 construct: whole, on cells
T4 sequence (looked up): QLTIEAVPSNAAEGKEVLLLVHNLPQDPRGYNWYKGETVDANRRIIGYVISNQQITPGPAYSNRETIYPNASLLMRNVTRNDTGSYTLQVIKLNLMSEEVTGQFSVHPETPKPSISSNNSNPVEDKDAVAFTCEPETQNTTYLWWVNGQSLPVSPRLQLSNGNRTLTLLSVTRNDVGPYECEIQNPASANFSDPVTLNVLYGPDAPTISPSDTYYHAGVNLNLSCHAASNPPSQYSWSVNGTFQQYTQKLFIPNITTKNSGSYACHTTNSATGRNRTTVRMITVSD
Protocol: as §1, §2

Measured: binding result

B1: 4R26 (antibody, human IgG4 S228P, lambda, V domains shown)
VH: EVQLLESGGGLVQPGGSLRLSCAASGFTFSNYAMSWVRQAPGKGLEWVSVISHGGGSIYYADSVKGRLTISRDNSKNTLYLQMNSLRAEDTAVYYCARDPTKGYAPTFDYWGQGTLVTVSS
VL: QSVLTQPPSASGTPGQRVTISCSGSSSNIGNNYVSWYQQLPGTAPKLLIYADSKRLSGVPDRFSGSKSGTSASLAISGLRSEDEADYYCGAWDGRLNGYVFGGGTKLTVLG
notes: also called C25-derived clone 4R26
no binding: [1] | [2] | [3] | [4]

B2: 4R9 (antibody, human IgG4 S228P, lambda, V domains shown)
VH: EVQLLESGGGLVQPGGSLRLSCAASGFTFSNYAMSWVRQAPGKGLEWVSVISHGGGSIYYADSVKGRLTISRDNSKNTLYLQMNSLRAEDTAVYYCARDPTKGYAPTFDYWGQGTLVTVSS
VL: QSVLTQPPSASGTPGQRVTISCSGSSSNIGNNYVSWYQQLPGTAPKLLIYADSRRPSGVPDRFSGSKSGTSASLAISGLRSEDEADYYCGAWDLSLNGYVFGGGTKLTVLG
notes: also called C25-derived clone 4R9
no binding: [1] | [2] | [3] | [4]

B3: 4R9_H4-n20 (antibody, human IgG4 S228P, lambda, V domains shown)
VH: EVQLLESGGGLVQPGGSLRLSCAASGFNFSNYAMSWVRQAPGKGLEWVSVISHGGGSIYYADSVKGRLTISRDNSKNTLYLQMNSLRAEDTAVYYCARDPTKGYAPTFDYWGQGTLVTVSS
VL: QSVLTQPPSASGTPGQRVTISCSGSSSNIGNNYVSWYQQLPGTAPKLLIYADSRRPSGVPDRFSGSKSGTSASLAISGLRSEDEADYYCGAWDLSLNGYVFGGGTKLTVLG
notes: also called C25-derived clone 4R9_H4-n20
no binding: [1] | [2] | [3] | [4]

B4: 4R9_H2-2 (antibody, human IgG4 S228P, lambda, V domains shown)
VH: EVQLLESGGGLVQPGGSLRLSCAASGFTFSNYAMSWVRQAPGKGLEWVSVISHGGGSIYYADSVKGRLTISRDNSKNTLYLQMNSLRAEDTAVYYCARDPTKGYAPLFDYWGQGTLVTVSS
VL: QSVLTQPPSASGTPGQRVTISCSGSSSNIGNNYVSWYQQLPGTAPKLLIYADSRRPSGVPDRFSGSKSGTSASLAISGLRSEDEADYYCGAWDLSLNGYVFGGGTKLTVLG
notes: also called C25-derived clone 4R9_H2-2
no binding: [1] | [2] | [3] | [4]
